Paper PMC3592468

Substrate: C[C@@H](O)[C@H](N)C(=O)O
Assay: purified protein
Assay type: biochemical, Saccharomyces cerevisiae
Details: 2.5 mM ATP, 2 mM PPi, 10 mM MgCl2, pH 7.5, 30 °C, no tRNA

B1: ScThrRS (Saccharomyces cerevisiae S288C) (protein)
chain: MSASEAGVTEQVKKLSVKDSSNDAVKPNKKENKKSKQQSLYLDPEPTFIEERIEMFDRLQKEYNDKVASMPRVPLKIVLKDGAVKEATSWETTPMDIAKGISKSLADRLCISKVNGQLWDLDRPFEGEANEEIKLELLDFESDEGKKVFWHSSAHVLGESCECHLGAHICLGPPTDDGFFYEMAVRDSMKDISESPERTVSQADFPGLEGVAKNVIKQKQKFERLVMSKEDLLKMFHYSKYKTYLVQTKVPDGGATTVYRCGKLIDLCVGPHIPHTGRIKAFKLLKNSSCYFLGDATNDSLQRVYGISFPDKKLMDAHLKFLAEASMRDHRKIGKEQELFLFNEMSPGSCFWLPHGTRIYNTLVDLLRTEYRKRGYEEVITPNMYNSKLWETSGHWANYKENMFTFEVEKETFGLKPMNCPGHCLMFKSRERSYRELPWRVADFGVIHRNEFSGALSGLTRVRRFQQDDAHIFCTHDQIESEIENIFNFLQYIYGVFGFEFKMELSTRPEKYVGKIETWDAAESKLESALKKWGGNWEINAGDGAFYGPKIDIMISDALRRWHQCATIQLDFQLPNRFELEFKSKDQDSESYERPVMIHRAILGSVERMTAILTEHFAGKWPFWLSPRQVLVVPVGVKYQGYAEDVRNKLHDAGFYADVDLTGNTLQKKVRNGQMLKYNFIFIVGEQEMNEKSVNIRNRDVMEQQGKNATVSVEEVLKQLRNLKDEKRGDNVLA
Km: 210 ± 20 µM | kcat: 1.72 ± 0.21 s⁻¹ | kcat/Km: 8190 M⁻¹ s⁻¹
